# Experimental data from paper doi:10.1101/2022.09.07.507024.
# Biological target: FMAL-labeled F-actin (rabbit skeletal muscle) (rabbit) (UniProt P68135)
# Test: FRET or BRET
Substance,increase of FRET over WT at 2.5 uM C0-C2 [%],change of FRET against WT at 2.5 uM C0-C2 (direction not told) [%],further results
"TMR-C0-C2^(S85C, L349R), unphosphorylated (domain or fragment)",,22,
"TMR-C0-C2^(S85C, E334K), PKA-phosphorylated (domain or fragment)",,,FRET as percent of WT at 2.5 uM C0-C2 (% of wild type FRET): 45
"TMR-C0-C2^(S85C, L349R), PKA-phosphorylated (domain or fragment)",,4,
"TMR-C0-C2^(P330C, L349R), PKA-phosphorylated (domain or fragment)",166,,

# Now from value to substance, other results behind:
increase of FRET over WT at 2.5 uM C0-C2 [%],change of FRET against WT at 2.5 uM C0-C2 (direction not told) [%],Substance,further results
89,,"TMR-C0-C2^(P330C, L349R), unphosphorylated (domain or fragment)",
74 to 160,,"TMR-C0-C2^(P330C, L352P), PKA-phosphorylated (domain or fragment)",
21,,"TMR-C0-C2^(P330C, T59A), unphosphorylated (domain or fragment)",
74 to 160,,"TMR-C0-C2^(Cys249, L352P), PKA-phosphorylated (domain or fragment)",
,10,"TMR-C0-C2^(Cys249, L349R), unphosphorylated (domain or fragment)",
105,,"TMR-C0-C2^(P330C, R282W), PKA-phosphorylated (domain or fragment)",
,31,"TMR-C0-C2^(Cys249, L349R), PKA-phosphorylated (domain or fragment)",
